Measurements as given in the Immune Epitope Database (IEDB).

Key:
[1] = molecular target: HLA-A*02:12; test: IEDB peptide-MHC binding, purified MHC/direct/fluorescence; filed as Kd, often an IC50 or EC50 that approximates it; ≥ and ≤ were set here for values at or beyond the usual limits of such assays
[2] = molecular target: HLA-B*18:01; test: as above
[3] = molecular target: HLA-A*02:19; test: as above
[4] = molecular target: HLA-B*57:01; test: as above
[5] = molecular target: HLA-A*02:16; test: as above; details: source organism: Vibrio vulnificus CMCP6
[6] = molecular target: HLA-B*46:01; test: as above
[7] = molecular target: HLA-A*02:01; test: as above
[8] = molecular target: HLA-B*35:01; test: as above
[9] = molecular target: HLA-A*02:03; test: as above
[10] = molecular target: HLA-A*02:11; test: as above
[11] = molecular target: HLA-A*26:01; test: as above
[12] = molecular target: HLA-B*27:03; test: as above
[13] = molecular target: HLA-A*24:03; test: as above
[14] = molecular target: HLA-B*07:02; test: as above
[15] = molecular target: HLA-B*15:01; test: as above
[16] = molecular target: HLA-A*03:01; test: as above
[17] = molecular target: HLA-B*51:01; test: as above
[18] = molecular target: HLA-B*15:17; test: as above
[19] = molecular target: HLA-B*39:01; test: as above
[20] = molecular target: HLA-A*02:06; test: IEDB peptide-MHC binding, purified MHC/competitive/fluorescence; filed as Kd, often an IC50 or EC50 that approximates it; ≥ and ≤ were set here for values at or beyond the usual limits of such assays; details: source organism: Francisella tularensis subsp. tularensis FSC198
[21] = molecular target: HLA-A*11:01; test: IEDB peptide-MHC binding, purified MHC/direct/fluorescence; filed as Kd, often an IC50 or EC50 that approximates it; ≥ and ≤ were set here for values at or beyond the usual limits of such assays; details: source organism: Francisella tularensis subsp. tularensis
[22] = molecular target: HLA-B*15:09; test: as above; details: source organism: Francisella tularensis subsp. tularensis FSC033
[23] = molecular target: HLA-A*01:01; test: as above; details: source organism: Francisella tularensis subsp. tularensis
[24] = molecular target: HLA-B*08:03; test: as above; details: source organism: Francisella tularensis subsp. tularensis FSC033
[25] = molecular target: HLA-A*68:02; test: as above
[26] = molecular target: HLA-B*58:01; test: as above; details: source organism: Francisella tularensis subsp. tularensis
[27] = molecular target: HLA-B*08:02; test: as above; details: source organism: Francisella tularensis subsp. tularensis FSC033
[28] = molecular target: HLA-A*69:01; test: as above
[29] = molecular target: HLA-B*57:01; test: IEDB peptide-MHC binding, purified MHC/competitive/radioactivity; filed as Kd, often an IC50 or EC50 that approximates it; ≥ and ≤ were set here for values at or beyond the usual limits of such assays
[30] = molecular target: HLA-B*58:01; test: as above; details: source organism: Dengue virus 3 Martinique/1243/1999
[31] = source organism: Vibrio vulnificus CMCP6
[32] = source organism: Giardia lamblia ATCC 50803
[33] = source organism: Francisella tularensis subsp. tularensis
[34] = source organism: Campylobacter jejuni

MPIAAAIGT was tested, and the Kd [1, 31] was ≥ 20 µM, the Kd [2, 31] was ≥ 20 µM and the Kd [3, 31] was ≥ 20 µM. For the same sequence, the Kd [4, 31] was ≥ 20 µM, the Kd [5] was ≥ 20 µM and the Kd [6, 31] was ≥ 20 µM. For the same sequence, the Kd [7, 31] was ≥ 20 µM, the Kd [8, 31] was 0.003 µM and the Kd [9, 31] was ≥ 20 µM. For the same sequence, the Kd [10, 31] was ≥ 20 µM, the Kd [11, 31] was ≥ 20 µM and the Kd [12, 31] was ≥ 20 µM. The Kd [13, 31] was ≥ 20 µM, the Kd [14, 31] was 1 µM and the Kd [15, 31] was ≥ 20 µM. The Kd [16, 31] was ≥ 20 µM.
In the case of PPPPLQHPI, the Kd [2, 32] is reported as ≥ 20 µM, the Kd [4, 32] is reported as ≥ 20 µM and the Kd [17, 32] is reported as ≥ 5 µM. For the same sequence, the Kd [18, 32] was ≥ 20 µM, the Kd [6, 32] was ≥ 20 µM and the Kd [11, 32] was ≥ 20 µM. The Kd [12, 32] was ≥ 20 µM, the Kd [19, 32] was ≥ 20 µM and the Kd [13, 32] was ≥ 20 µM. For the same sequence, the Kd [15, 32] was ≥ 20 µM and the Kd [16, 32] was ≥ 20 µM.
RYSNFAWYF was tested, and the Kd [20] was ≥ 20 µM, the Kd [2, 33] was ≥ 20 µM and the Kd [21] was ≥ 20 µM. The Kd [22] was ≥ 20 µM, the Kd [23] was ≥ 20 µM and the Kd [24] was ≥ 20 µM. For the same sequence, the Kd [4, 33] was ≥ 20 µM, the Kd [25, 33] was ≥ 20 µM and the Kd [26] was ≥ 20 µM. The Kd [18, 33] was ≥ 20 µM, the Kd [7, 33] was ≥ 20 µM and the Kd [13, 33] was 0.365 µM. For the same sequence, the Kd [27] was ≥ 20 µM, the Kd [14, 33] was ≥ 20 µM and the Kd [15, 33] was ≥ 20 µM. The Kd [28, 33] was ≥ 20 µM.
In the case of SFWFFHPPY, the Kd [1, 34] is reported as ≥ 20 µM, the Kd [3, 34] is reported as ≥ 20 µM and the Kd [4, 34] is reported as ≥ 20 µM. For the same sequence, the Kd [25, 34] was ≥ 20 µM, the Kd [17, 34] was ≥ 20 µM and the Kd [6, 34] was ≥ 20 µM. The Kd [8, 34] was 0.351 µM, the Kd [9, 34] was ≥ 20 µM and the Kd [10, 34] was ≥ 20 µM. The Kd [11, 34] was ≥ 20 µM, the Kd [12, 34] was ≥ 20 µM and the Kd [19, 34] was ≥ 20 µM. For the same sequence, the Kd [14, 34] was ≥ 20 µM, the Kd [15, 34] was 4.99 µM and the Kd [16, 34] was ≥ 20 µM. For the same sequence, the Kd [28, 34] was ≥ 20 µM.
TASGINMCTL showed a Kd ([29]; source organism: Dengue virus 3 Martinique/1243/1999) of 5.59 µM and a Kd [30] of 0.103 µM.
Work on TTEDMLAVW yielded a Kd ([29]; source organism: Dengue virus 2 Jamaica/1409/1983) of 0.0301 µM.
